Results published in patent US20210269548A1 (Kyowa Kirin, published 2021).

T1: monkey CSPG5 (monkey (rhesus monkey), UniProt O95196 31-566 (human entry))
T1 construct: Full-length gene expressed on Expi293F cells; also called monkey CSPG5/Expi293F cells; rhesus monkey CSPG5
T1 chain: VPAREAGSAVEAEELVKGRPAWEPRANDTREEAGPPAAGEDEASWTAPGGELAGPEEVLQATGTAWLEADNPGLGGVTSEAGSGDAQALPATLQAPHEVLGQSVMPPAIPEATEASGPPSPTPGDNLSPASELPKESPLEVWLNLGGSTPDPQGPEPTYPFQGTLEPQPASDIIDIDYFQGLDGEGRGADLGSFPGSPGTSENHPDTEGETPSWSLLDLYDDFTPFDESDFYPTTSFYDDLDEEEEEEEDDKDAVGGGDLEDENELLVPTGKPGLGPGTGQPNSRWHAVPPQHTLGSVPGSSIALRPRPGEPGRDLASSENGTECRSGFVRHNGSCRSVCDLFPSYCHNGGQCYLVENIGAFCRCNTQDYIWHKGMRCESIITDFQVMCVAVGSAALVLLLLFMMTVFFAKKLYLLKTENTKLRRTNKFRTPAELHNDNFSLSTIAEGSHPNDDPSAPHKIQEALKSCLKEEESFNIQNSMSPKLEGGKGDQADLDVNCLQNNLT

T2: mouse CSPG5 (mouse, UniProt Q71M36 31-566)
T2 construct: Full-length gene expressed on Expi293F cells; also called mouse CSPG5/Expi293F cells
T2 sequence: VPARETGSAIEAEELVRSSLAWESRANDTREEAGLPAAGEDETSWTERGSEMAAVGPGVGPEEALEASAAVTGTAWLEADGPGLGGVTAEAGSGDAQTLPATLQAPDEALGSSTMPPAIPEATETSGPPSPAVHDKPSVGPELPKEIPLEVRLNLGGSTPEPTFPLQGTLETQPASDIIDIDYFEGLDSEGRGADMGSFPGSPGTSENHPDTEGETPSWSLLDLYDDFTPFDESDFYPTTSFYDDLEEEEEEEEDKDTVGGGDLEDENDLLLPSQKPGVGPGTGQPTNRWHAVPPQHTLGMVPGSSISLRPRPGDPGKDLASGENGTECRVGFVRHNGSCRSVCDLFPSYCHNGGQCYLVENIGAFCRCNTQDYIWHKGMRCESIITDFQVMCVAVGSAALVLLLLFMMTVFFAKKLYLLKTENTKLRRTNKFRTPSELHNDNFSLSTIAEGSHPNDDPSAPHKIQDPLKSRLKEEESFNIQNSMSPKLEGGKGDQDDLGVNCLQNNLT

T3: human CSPG5 (human, UniProt O95196 31-566)
T3 construct: Full-length gene expressed on cell membrane (Expi293F, L929); also called human CSPG5/Expi293F cells; human CSPG5/L929#09
T3 sequence: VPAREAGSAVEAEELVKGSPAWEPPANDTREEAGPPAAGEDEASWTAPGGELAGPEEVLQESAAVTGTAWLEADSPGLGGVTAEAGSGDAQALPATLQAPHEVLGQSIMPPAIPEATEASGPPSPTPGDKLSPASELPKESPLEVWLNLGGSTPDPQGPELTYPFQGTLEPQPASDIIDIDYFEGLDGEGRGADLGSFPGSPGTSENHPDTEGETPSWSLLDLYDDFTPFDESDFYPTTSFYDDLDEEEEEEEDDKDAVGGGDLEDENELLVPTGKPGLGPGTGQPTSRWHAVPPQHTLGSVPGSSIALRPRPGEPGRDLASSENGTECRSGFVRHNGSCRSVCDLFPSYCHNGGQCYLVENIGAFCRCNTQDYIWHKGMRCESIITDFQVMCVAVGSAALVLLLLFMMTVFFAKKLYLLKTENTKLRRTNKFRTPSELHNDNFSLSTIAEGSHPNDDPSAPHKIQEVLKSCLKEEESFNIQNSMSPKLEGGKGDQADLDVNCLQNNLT


How the values were obtained:
[1] = target: T1, monkey CSPG5; assay: FACS, 10 µg/mL antibody, monkey CSPG5/Expi293F vs Expi293F
Protocol: (§1) Expi293F cells, human CSPG5/Expi293F cells, mouse CSPG5/Expi293F cells, and monkey CSPG5/Expi293F cells were separately suspended in Staining Buffer (SB) of PBS comprising 0.1% NaN₃ and 1% FBS and dispensed in a round-bottom 96-well plate (manufactured by Becton, Dickinson and Company). After centrifugation (2000 rpm, 4° C., 2 minutes), the supernatant was removed, and to the resulting pellet, 10 μg/mL of each antibody obtained in Example 2 was added to suspend the pellet, and the resulting suspension was left to stand for 30 minutes at ice temperature. After further centrifugation (2000 rpm, 4° C., 2 minutes), the supernatant was removed, and the resulting pellet was washed with SB, and thereafter, 1 μg/mL of an RPE fluorescently labeled goat anti-human antibody (manufactured by Southern Biotech, Inc.) was added thereto, and the resultant was incubated for 30 minutes at ice temperature. After washing with SB, the cells were suspended in SB, and the fluorescence intensity of each cell was measured using a flow cytometer FACS CANTO II (manufactured by Becton, Dickinson and Company). Note that as a negative control, 10 μg/mL of the anti-AVM antibody was used.
(§2) The detection results were analyzed, and a mean fluorescence intensity (MFI) was calculated using a geometric mean. Further, with respect to the MFI when the concentration of each antibody was 10 μg/mL, the ratio of the MFI (mean fluorescence intensity ratio) between the human CSPG5/Expi293F cells and the Expi293F cells (parent cell line) was calculated. Also for the monkey CSPG5/Expi293F cells and the mouse CSPG5/Expi293F cells, the mean fluorescence intensity ratio relative to the Expi293F cells (parent cell line) was calculated by the same procedure, and the results are shown in Table 3.

[2] = target: T2, mouse CSPG5; assay: FACS, 10 µg/mL antibody, mouse CSPG5/Expi293F vs Expi293F
Protocol: as §1, §2

[3] = target: mouse CSPG5-GST (mouse); assay: SPR Biacore T-100, antibody captured, mouse CSPG5-GST analyte
Protocol: The affinity of the anti-CSPG5 antibodies, the CSPG5202 IgG4PE(R409K), and the AVM IgG4PE(R409K) CSPG5202 dscFv produced in Example 2 for human CSPG5 and mouse CSPG5 was measured using Biacore T-100 (GE Healthcare).
Each of the antibodies was immobilized on a […] sensor chip using a Human antibody Capture kit, and the binding ability was evaluated using human CSPG5-GST and mouse CSPG5-GST produced in Example 4 as analytes. The obtained sensorgram was analyzed with BIA evaluation software, and the dissociation constant (KD value) was calculated.

[4] = target: T3, human CSPG5; assay: FACS, 10 µg/mL antibody, human CSPG5/Expi293F vs Expi293F
Protocol: as §1, §2

[5] = target: T2, mouse CSPG5; assay: FACS on CSPG5/Expi293F cells
Protocol: as §1

[6] = target: T1, monkey CSPG5; assay: FACS on CSPG5/Expi293F cells
Protocol: as §1

[7] = target: T3, human CSPG5; assay: FACS on CSPG5/Expi293F cells
Protocol: as §1

Row | Mean fluorescence intensity ratio [1] | Mean fluorescence intensity ratio [2] | Kd [3] | Mean fluorescence intensity ratio [4] | binding result [5] | binding result [6] | binding result [7] | Binder
1 | 3.36 ratio to parent cell line | 5.81 ratio to parent cell line | ≤ 10 nM | 5.46 ratio to parent cell line | – | – | – | CSPG5168 scFv-hG4PE(R409K) (Fc fusion, also called anti-CSPG5 scFv-Fc antibody) VH: EVQLVETGGALVQPGGSLRLSCAGSGFIFSKYEMTWVRQAPGKGLEWVSTIGSLGLKTFYTDSVKGRFTTSRDNSRDTLFLQMDNLRVEDTAIYFCVKGGIRRADYWGKGTLVTVSS VL: EIVMTQSPATLSLSPGERATLSCRASQSVSSYLAWYQQKPGQAPRLLIYDASNRATGIPARFSGSGSGTDFTLTISSLEPEDFAVYYCQQRSNWPLTFGGGTKVEIK
2 | – | – | ≤ 10 nM | – | binds | binds | binds | AVM IgG4PE(R409K) CSPG5202 dscFv (bispecific antibody, also called anti-AVM-IgG4-CSPG5 dscFv bispecific antibody) heavy: not shown light: QFVLSQPNSVSTNLGSTVKLSCKRSTGNIGSNYVSWYQQHEGRSPTTMIYRDDKRPDGVPDRFSGSIDRSSDSALLTINNVQTEDEADYFCQSYSSGINIFGGGTKLTVLGQPKAAPSVTLFPPSSEELQANKATLVCLISDFYPGAVTVAWKADSSPVKAGVETTTPSKQSNNKYAASSYLSLTPEQWKSHRSYSCQVTHEGSTVEKTVAPTECS
